Results as given in patent US20190389961A1 (INNATE PHARMA, published 2019).

Experiments:
[1] = target: T1, soluble recombinant human CD39-M2 extracellular domain protein (human, UniProt P49961 38-478, limits assumed); test: cell-based or functional assay
T1 sequence: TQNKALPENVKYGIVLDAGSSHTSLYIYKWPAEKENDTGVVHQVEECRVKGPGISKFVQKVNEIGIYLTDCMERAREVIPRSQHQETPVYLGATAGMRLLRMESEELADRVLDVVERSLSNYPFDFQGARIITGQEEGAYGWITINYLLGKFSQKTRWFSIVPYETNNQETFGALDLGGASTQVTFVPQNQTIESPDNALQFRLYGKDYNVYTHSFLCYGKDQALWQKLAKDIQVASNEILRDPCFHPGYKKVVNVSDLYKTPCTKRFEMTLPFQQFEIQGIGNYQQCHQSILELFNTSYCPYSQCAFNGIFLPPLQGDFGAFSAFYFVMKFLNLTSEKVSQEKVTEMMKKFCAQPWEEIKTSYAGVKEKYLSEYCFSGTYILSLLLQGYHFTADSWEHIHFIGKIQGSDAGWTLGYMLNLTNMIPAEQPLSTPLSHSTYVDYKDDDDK

[2] = target: T2, human CD39 (vascular CD39, NTPDase1) expressed at the surface of cells (human, UniProt P49961 1-510); test: cell-based or functional assay
T2 sequence: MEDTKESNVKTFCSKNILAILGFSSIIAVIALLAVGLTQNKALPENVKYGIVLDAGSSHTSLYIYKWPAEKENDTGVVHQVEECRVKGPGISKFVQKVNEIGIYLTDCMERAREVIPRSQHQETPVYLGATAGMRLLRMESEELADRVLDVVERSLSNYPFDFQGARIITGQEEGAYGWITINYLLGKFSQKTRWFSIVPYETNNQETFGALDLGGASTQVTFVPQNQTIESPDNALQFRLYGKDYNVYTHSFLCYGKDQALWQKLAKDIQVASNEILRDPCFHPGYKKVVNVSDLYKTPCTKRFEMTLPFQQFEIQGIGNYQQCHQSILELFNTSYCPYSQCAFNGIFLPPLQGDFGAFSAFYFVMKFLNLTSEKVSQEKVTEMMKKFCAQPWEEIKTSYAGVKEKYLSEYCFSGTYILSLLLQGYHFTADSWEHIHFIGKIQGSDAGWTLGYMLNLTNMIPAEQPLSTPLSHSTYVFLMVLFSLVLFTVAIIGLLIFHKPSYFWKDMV

[3] = target: T2, human CD39 (vascular CD39, NTPDase1) …; test: flow cytometry on Ramos lymphoma cells, first set of experiments
Procedure: (§1) Cells were incubated with various concentration of unlabeled anti-CD39 antibody from 30 μg/ml to 5×10-⁴ μg/ml, for 30 minutes at 4° C. After washes, cells were incubated with Goat anti-mouse H+L labeled secondary antibody for 30 min at 4° C.

[4] = target: T3, murine CD39 expressed on CHO cells (murine, UniProt P55772 1-510); test: flow cytometry titration on CHO-moCD39 cells
T3 construct: whole, on cells; also called CHO-moCD39; moCD39
T3 sequence (looked up): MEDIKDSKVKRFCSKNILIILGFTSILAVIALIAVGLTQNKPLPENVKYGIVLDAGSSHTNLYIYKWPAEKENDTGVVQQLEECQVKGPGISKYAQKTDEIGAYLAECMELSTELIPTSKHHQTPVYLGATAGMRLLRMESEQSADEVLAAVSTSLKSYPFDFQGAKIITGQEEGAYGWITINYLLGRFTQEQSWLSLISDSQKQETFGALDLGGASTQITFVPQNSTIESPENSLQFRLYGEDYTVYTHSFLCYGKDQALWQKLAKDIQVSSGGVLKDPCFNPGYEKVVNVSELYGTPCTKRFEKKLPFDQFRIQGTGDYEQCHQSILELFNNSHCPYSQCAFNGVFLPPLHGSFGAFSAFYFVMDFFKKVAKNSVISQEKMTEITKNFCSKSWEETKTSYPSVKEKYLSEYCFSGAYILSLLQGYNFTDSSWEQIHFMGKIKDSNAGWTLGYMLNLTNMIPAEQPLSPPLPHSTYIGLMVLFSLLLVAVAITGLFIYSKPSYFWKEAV
Procedure: as §1

[5] = target: T4, recombinant human CD39-L3 (NTPDase3, ENTPD3) (human, UniProt O75355 44-485, limits assumed); test: ELISA on plate-coated recombinant huCD39 L3; the single curve has no legend on the sheet, I-394 by the legend paragraph 70
T4 construct: Genbank NP_001239 is printed
T4 sequence: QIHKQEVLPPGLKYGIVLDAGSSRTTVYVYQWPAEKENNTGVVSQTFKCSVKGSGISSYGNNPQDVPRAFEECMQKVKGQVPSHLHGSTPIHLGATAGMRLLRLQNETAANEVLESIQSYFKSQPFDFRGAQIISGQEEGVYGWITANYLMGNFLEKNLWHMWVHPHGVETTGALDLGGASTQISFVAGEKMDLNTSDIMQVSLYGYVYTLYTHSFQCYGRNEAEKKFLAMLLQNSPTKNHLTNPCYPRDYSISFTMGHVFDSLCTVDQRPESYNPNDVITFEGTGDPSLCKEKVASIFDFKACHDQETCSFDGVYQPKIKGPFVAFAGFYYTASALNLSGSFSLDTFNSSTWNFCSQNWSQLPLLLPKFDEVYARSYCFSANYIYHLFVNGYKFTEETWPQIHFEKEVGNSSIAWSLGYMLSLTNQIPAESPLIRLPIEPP
Procedure: Wells were washed in TBS Tween 20, and further saturated 2H at RT in TBS Blocking buffer. Dose range concentration of primary antibody was incubated in TBS blocking buffer for 2 h at RT. Wells were washed in TBS Tween 20. […] Optical density was measured on Enspire™ at OD=450.

IC50, inhibition of ATPase activity of soluble CD39 protein (Cell Titer Glo) [1]: 0.003 µg/mL
IC50, inhibition of ATPase activity of CD39 on Ramos cells (Cell Titer Glo) [2]: 0.05 µg/mL
EC50 [3]: 0.16 µg/mL
binding result [4]: no binding (tested: 30 µg/ml)
binding result [5]: no binding (tested: about 50 µg/ml)
B1: antibody I-394 (antibody, V domains shown)
VH: EVQLQQSGPELVKPGASVKMSCKASGYTFTDYNMHWVKQSHGRTLEWIGYIVPLNGGSTFNQKFKGRATLTVNTSSRTAYMELRSLTSEDSAAYYCARGGTRFAYWGQGTLVTVSA
VL: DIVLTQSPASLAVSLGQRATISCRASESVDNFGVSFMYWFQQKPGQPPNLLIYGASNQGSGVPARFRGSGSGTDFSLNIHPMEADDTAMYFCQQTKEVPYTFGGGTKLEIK
notes: Mouse variable regions; Produced in CHO with human IgG1 constant domains carrying L234A/L235E/G237A/A330S/P331S (Kabat EU numbering) and a human Ck constant domain
